Test results: patent publication US20050196403A1
Read-outs that look alike come from different tables or passages of the source. One block for each binder: values may come before it. Non-standard residues stand in square brackets, D forms with d. No end group written: not given here. Abu = CC[C@H](N)C(=O)O

Key:
HLA-A*1101 (human) [1] = experiment: inhibition of radiolabeled probe peptide binding to purified HLA, gel filtration; details: remark: other sources report otherwise
HLA-A*0301 (Human) [2] = details: remark: other sources report otherwise
HLA-A*0203 (human) [3] = experiment: competition with 125I probe peptide, purified HLA class I; details: remark: other sources report otherwise
HLA-A*0206 (human) [4] = experiment: as above; details: remark: other sources report otherwise
HLA-A*1101 (human) [5] = experiment: as above; details: remark: other sources report otherwise
HLA-A*6801 (human) [6] = experiment: as above; details: remark: other sources report otherwise
HLA-A*0301 (Human) [7] = details: remark: other sources report otherwise; remark: listed apart in the source
HLA-A*1101 (Human) [8] = details: remark: other sources report otherwise
HLA-A*3101 (Human) [9] = details: remark: other sources report otherwise
HLA-A*3301 (Human) [10] = details: remark: other sources report otherwise
HLA-A*6801 (Human) [11] = details: remark: other sources report otherwise
HLA-A*0301 (Human) [12] = details: remark: other sources report otherwise; remark: listed apart in the source
HLA-A*2401 (human) = experiment: competition with 125I probe peptide, purified HLA class I
HLA-A*6802 (human) = experiment: as above; details: remark: other sources report otherwise
HLA-A*0206 (Human) [13] = experiment: competition vs 125I probe, purified HLA; details: remark: other sources report otherwise
HLA-A*3301 (human) [14] = experiment: competition with 125I probe peptide, purified HLA class I; details: remark: other sources report otherwise
HLA-A*0301 (human) [15] = experiment: as above; details: remark: other sources report otherwise
HLA-A*3101 (human) [16] = experiment: as above; details: remark: other sources report otherwise
HLA-A*0203 (Human) [17] = experiment: competition vs 125I probe, purified HLA; details: remark: other sources report otherwise

binding affinity ratio to standard peptide (HLA-A*1101 (human) [1]): 0.091
binding affinity ratio (IC50 of standard peptide/IC50 of test peptide) (HLA-A*0301 (Human) [2]): 0.0015
Binder: RTEEENLRK

IC50 (HLA-A*0203 (human) [3]): 19.6 nM
IC50 (HLA-A*0206 (human) [4]): 92.5 nM
Binder: KMFCQLAKT [… p53.132]

IC50 (HLA-A*1101 (human) [5]): 12.8 nM
IC50 (HLA-A*6801 (human) [6]): 500 nM
B1: 1371.16 BVYSPALNK p53.124.B1V2 (peptide)
peptide: BVYSPALNK
modifications: here or on the partner: B at position 1 is alpha-amino butyric acid (in place of cysteine)

IC50 (HLA-A*1101 (human) [5]): 75 nM
IC50 (HLA-A*6801 (human) [6]): 17 nM
Binder: SV[Abu]MGGMNRK [1371.25 SVBMGGMNRK p53.240.V2B3K10]

binding affinity ratio (IC50 of standard peptide/IC50 of test peptide) (HLA-A*0301 (Human) [7]): 0.0015
binding affinity ratio (IC50 of standard peptide/IC50 of test peptide) (HLA-A*1101 (Human) [8]): 0.091
binding affinity ratio (IC50 of standard peptide/IC50 of test peptide) (HLA-A*3101 (Human) [9]): 0.0002
binding affinity ratio (IC50 of standard peptide/IC50 of test peptide) (HLA-A*3301 (Human) [10]): 0.0006
binding affinity ratio (IC50 of standard peptide/IC50 of test peptide) (HLA-A*6801 (Human) [11]): 0.0001
Binder: RTEEENLRK [p53 peptide … (position 283, 9 amino acids)]

binding affinity ratio to standard peptide (HLA-A*1101 (human) [1]): 0.0002
binding affinity ratio (IC50 of standard peptide/IC50 of test peptide) (HLA-A*0301 (Human) [2]): 0.0001
Binder: LGFLHSGTAK [p53 peptide … (position 111)]

binding affinity ratio to standard peptide (HLA-A*1101 (human) [1]): 0.26
Binder: YGFRLGFLH [p53 peptide … (position 107)]

binding affinity ratio to standard peptide (HLA-A*1101 (human) [1]): 0.0019
Binder: TSSSPQPK [p53 peptide TSSSPQPK (position 312)]

binding affinity ratio (IC50 of standard peptide/IC50 of test peptide) (HLA-A*0301 (Human) [7]): 0.02
binding affinity ratio (IC50 of standard peptide/IC50 of test peptide) (HLA-A*1101 (Human) [8]): 1.4
binding affinity ratio (IC50 of standard peptide/IC50 of test peptide) (HLA-A*0301 (Human) [12]): 0.02
Binder: SSCMGGMNR [p53 peptide … (position 240, 9 amino acids)]

IC50 (HLA-A*2401 (human)): 30 nM
Binder: TYQGSYGFRF [57.0096 … p53.102.F10]

IC50 (HLA-A*6802 (human)): 80000 nM
Binder: FLHSGTAKSV [1329.09 … p53.113]

IC50 (HLA-A*0206 (Human) [13]): 841 nM
Binder: RMPEAAPPVA [p53.65 … (10-mer)]

IC50 (HLA-A*3301 (human) [14]): 10000 nM
Binder: KVYQGSYGFR [1371.14 … p53.101.V2]

IC50 (HLA-A*0301 (human) [15]): 12.5 nM
IC50 (HLA-A*1101 (human) [5]): 17.1 nM
IC50 (HLA-A*3101 (human) [16]): 9000 nM
IC50 (HLA-A*6801 (human) [6]): 29.6 nM
Binder: SV[Abu]MGGMNK [1371.24 SVBMGGMNK p53.240.V2B3K9]

binding affinity ratio (IC50 of standard peptide/IC50 of test peptide) (HLA-A*0301 (Human) [7]): 3.3
binding affinity ratio (IC50 of standard peptide/IC50 of test peptide) (HLA-A*1101 (Human) [8]): 0.008
Binder: RTEEENLRKK [p53 peptide … (position 283, 10 amino acids)]

binding affinity ratio to standard peptide (HLA-A*1101 (human) [1]): 0.086
Binder: SSCMGGMNRR

binding affinity ratio (IC50 of standard peptide/IC50 of test peptide) (HLA-A*1101 (Human) [8]): 0.0019
Binder: TSSSPQPK [p53 peptide TSSSPQPK (position 312, 8 amino acids)]

binding affinity ratio to standard peptide (HLA-A*1101 (human) [1]): 0.0052
Binder: TSRHKKLMFK [p53 peptide … (position 377)]

binding affinity ratio to standard peptide (HLA-A*1101 (human) [1]): 0.0002
binding affinity ratio (IC50 of standard peptide/IC50 of test peptide) (HLA-A*0301 (Human) [2]): 0.0014
Binder: KGQSTSRHK [p53 peptide … (position 373)]

binding affinity ratio (IC50 of standard peptide/IC50 of test peptide) (HLA-A*0301 (Human) [7]): 0.0001
binding affinity ratio (IC50 of standard peptide/IC50 of test peptide) (HLA-A*1101 (Human) [8]): 0.086
binding affinity ratio (IC50 of standard peptide/IC50 of test peptide) (HLA-A*0301 (Human) [12]): 0.0001
Binder: SSCMGGMNRR [p53 peptide … (position 240, 10 amino acids)]

binding affinity ratio to standard peptide (HLA-A*1101 (human) [1]): 0.73
binding affinity ratio (IC50 of standard peptide/IC50 of test peptide) (HLA-A*0301 (Human) [2]): 1.5
Binder: RVRAMAIYK [p53 peptide … (position 156)]

binding affinity ratio (IC50 of standard peptide/IC50 of test peptide) (HLA-A*0301 (Human) [7]): 0.05
binding affinity ratio (IC50 of standard peptide/IC50 of test peptide) (HLA-A*1101 (Human) [8]): 0.0052
binding affinity ratio (IC50 of standard peptide/IC50 of test peptide) (HLA-A*0301 (Human) [12]): 0.05
Binder: TSRHKKLMFK [p53 peptide … (position 377, 10 amino acids)]

binding affinity ratio (IC50 of standard peptide/IC50 of test peptide) (HLA-A*0301 (Human) [12]): 0.0056
Binder: TCTYSPALNK [p53 peptide … (position 123, 10 amino acids)]

binding affinity ratio (IC50 of standard peptide/IC50 of test peptide) (HLA-A*0301 (Human) [2]): 3.3
Binder: RTEEENLRKK

binding affinity ratio (IC50 of standard peptide/IC50 of test peptide) (HLA-A*0301 (Human) [7]): 1.5
binding affinity ratio (IC50 of standard peptide/IC50 of test peptide) (HLA-A*1101 (Human) [8]): 0.73
binding affinity ratio (IC50 of standard peptide/IC50 of test peptide) (HLA-A*3101 (Human) [9]): 3.7
binding affinity ratio (IC50 of standard peptide/IC50 of test peptide) (HLA-A*3301 (Human) [10]): 0.0063
binding affinity ratio (IC50 of standard peptide/IC50 of test peptide) (HLA-A*6801 (Human) [11]): 0.003
Binder: RVRAMAIYK [p53 peptide … (position 156, 9 amino acids)]

binding affinity ratio (IC50 of standard peptide/IC50 of test peptide) (HLA-A*0301 (Human) [7]): 0.07
binding affinity ratio (IC50 of standard peptide/IC50 of test peptide) (HLA-A*1101 (Human) [8]): 0.12
binding affinity ratio (IC50 of standard peptide/IC50 of test peptide) (HLA-A*6801 (Human) [11]): 0.0068
binding affinity ratio (IC50 of standard peptide/IC50 of test peptide) (HLA-A*0301 (Human) [12]): 0.07
Binder: VTCTYSPALNK [p53 peptide … (position 122, 11 amino acids)]

binding affinity ratio to standard peptide (HLA-A*1101 (human) [1]): 0.0001
binding affinity ratio (IC50 of standard peptide/IC50 of test peptide) (HLA-A*0301 (Human) [2]): 0.0014
Binder: GFLHSGTAK [p53 peptide … (position 112)]

binding affinity ratio to standard peptide (HLA-A*1101 (human) [1]): 1.4
Binder: SSCMGGMNR

binding affinity ratio to standard peptide (HLA-A*1101 (human) [1]): 0.12
Binder: VTCTYSPALNK [p53 peptide … (position 122)]

IC50 (HLA-A*0203 (Human) [17]): 9.1 nM
IC50 (HLA-A*0206 (Human) [13]): 37 nM
Binder: KMF[Abu]QLAKV [p53.132B4V9 KMFBQLAKV]

binding affinity ratio to standard peptide (HLA-A*1101 (human) [1]): 0.012
Binder: TCTYSPALNK [p53 peptide … (position 123)]
